Experiment [1] concerns the target T1, human TROP2-his protein (human, UniProt P09758 27-274).
T1 construct: Biotin-labelled in the ELISAs, unlabelled analyte in Biacore; also called biotin-labeled human TROP2-his protein; biotin human Trop2-his
T1 sequence: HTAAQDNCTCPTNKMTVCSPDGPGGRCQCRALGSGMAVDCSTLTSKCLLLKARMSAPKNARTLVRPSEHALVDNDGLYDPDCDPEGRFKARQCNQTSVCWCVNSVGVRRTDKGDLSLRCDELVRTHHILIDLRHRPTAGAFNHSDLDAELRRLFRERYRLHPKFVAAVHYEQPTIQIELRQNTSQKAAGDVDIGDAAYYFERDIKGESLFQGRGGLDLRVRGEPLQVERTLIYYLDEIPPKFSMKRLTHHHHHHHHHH
Kind of experiment: SPR Biacore, antibody captured on anti-human IgG CM5 chip, TROP2-his analyte. The protocol:
Un-reacted moieties on the chip (biosensor) surface were blocked with ethanolamine. […] The antigen-antibody association kinetics was followed for 2 minutes and the dissociation kinetics was followed for 10 minutes. The association and dissociation curves were fit to a 1:1 Langmuir binding model using BIAcore evaluation software.
In general terms: SPR reads the build-up and loss of mass on a sensor chip optically.

In experiment [2] the target is T2, full length human TROP2 on 293F-TROP2 cells (human, UniProt P09758 27-323).
T2 construct: also called 293F-TROP2 cells (clone ID #3A8); cell surface TROP2
T2 sequence: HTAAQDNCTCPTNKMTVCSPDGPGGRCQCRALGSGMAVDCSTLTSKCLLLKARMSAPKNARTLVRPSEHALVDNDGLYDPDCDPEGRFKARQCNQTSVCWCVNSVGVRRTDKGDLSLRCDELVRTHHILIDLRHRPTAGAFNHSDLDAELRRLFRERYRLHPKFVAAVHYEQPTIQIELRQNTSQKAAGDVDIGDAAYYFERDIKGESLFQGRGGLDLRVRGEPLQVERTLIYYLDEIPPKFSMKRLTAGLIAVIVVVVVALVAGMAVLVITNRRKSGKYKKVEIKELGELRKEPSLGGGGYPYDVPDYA
Kind of experiment: FACS on 293F-TROP2 cells, MFI.

Experiment [3] addresses T1, human TROP2-his protein. The experiment in a line: SPR Biacore T200, supernatant antibody captured on anti-human IgG CM5 chip, 40 nM human TROP2-his. The procedure:
The goat anti-human IgG (GE healthcare, Cat #BR100839, Human Antibody Capture Kit) was covalently linked to a CM5 chip instead of goat anti-mouse IgG. […] The human TROP2-his protein at the concentration of 40 nM was used instead of serially diluted human TROP2-his protein.

Experiment [4] deals with T1, human TROP2-his protein. Kind of experiment: SPR Biacore, compared with BM2.
Experiment [5] has as its target T1, human TROP2-his protein. The experiment in a line: competitive ELISA: mouse A1E11A12D1 coated at 2 ug/mL, antibody premixed with biotin human TROP2-his; blocked: binding of TROP2-his to coated A1E11A12D1 (self-competition). The procedure: (§1) The mouse anti-TROP2 antibodies were tested for epitope binding in a competitive ELISA assay. […] ELISA plates were washed once with wash buffer (PBS+0.05% v/v Tween-20, PBST) and then blocked with 200 μl blocking buffer (5% w/v non-fatty milk in PBST) for 2 hours at 37° C. While blocking, the anti-TROP2 antibodies or controls were diluted with biotin labeled human TROP2-his protein (SEQ ID NO: 67, 34 ng/mL in 2.5% wA non-fatty milk in PBST), starting at 80 nM with a 5-fold serial dilution, and incubated at room temperature for 40 minutes. After plate washing for 4 times, the antibody/TROP2-his protein mixtures were added to the antibody coated plates, 100 μl per well. After incubation at 37° C. for 40 minutes, plates were washed 4 times again using wash buffer. Then the plates were added and incubated with 100 μl Peroxidase Streptavidin (1:10000 dilution in PBST buffer. Jackson Immunoresearch, Cat #016-030-084) for 40 minutes at 37° C. Plates were washed again using wash buffer. Finally, TMB was added and the reaction was stopped using 1M H₂SO₄. The absorbance of each well was read on a microplate reader using dual wavelength mode with 450 nm for TMB and 630 nm as the reference wavelength, and the OD (450-630) values were plotted against antibody concentration. Data was analyzed using Graphpad Prism software and IC₅₀ values were reported.

For experiment [6], the target named is T1, human TROP2-his protein. Kind of experiment: competitive ELISA: mouse A1E4F7D4 coated at 2 ug/mL, antibody premixed with biotin human TROP2-his; blocked: binding of TROP2-his to coated A1E4F7D4. The protocol:
as §1
In general terms: In an ELISA, binding on a coated surface is turned into a signal by an enzyme label.

The target in experiment [7] is T1, human TROP2-his protein. The experiment in a line: competitive ELISA: mouse A1E11A12D1 coated at 2 ug/mL, antibody premixed with biotin human TROP2-his; blocked: binding of TROP2-his to coated A1E11A12D1; no lower plateau reached at 80 nM. The protocol: as §1
Experiment [8] addresses T1, human TROP2-his protein. The experiment in a line: competitive ELISA: mouse A1E11A12D1 coated at 2 ug/mL, antibody premixed with biotin human TROP2-his; blocked: binding of TROP2-his to coated A1E11A12D1. The procedure:
as §1

Experiment [9] deals with T1, human TROP2-his protein. Kind of experiment: SPR Biacore, antibody captured on chip, TROP2-his analyte.

Positions count from the first letter of the chain named. A value given as a limit tells only on which side of the number the result lay.

As a reminder, the Kd is the free concentration of one partner at which half of the binding sites on the other are occupied at equilibrium, for simple one-to-one binding. Read a low Kd as higher affinity. A word on the EC50: it is the concentration needed to bring the measured effect to its halfway point. Low values mean an effect from little substance, high ones a need for much substance. As a reminder, the koff is the rate constant with which the complex falls apart. A high value points to fast dissociation. As a reminder, the kon is the second-order rate constant of association. A lower kon goes with slower complex formation. Usually IC50 stands for the concentration at which inhibition is half-maximal. Lower therefore signals greater potency.

B1: benchmark (in house prepared sacituzumab) (antibody, human IgG1, kappa, V domains shown)
VH: SVQLQQSGSELKKPGASVKVSCKASGYTFTNYGMNWVKQAPGQGLKWMGWINTYTGEPTYTDDFKGRFAFSLDTSVSTAYLQISSLKADDTAVYFCARGGFGSSYWYFDVWGQGSLVTVSS
VL: DIQLTQSPSSLSASVGDRVSITCKASQDVSIAVAWYQQKPGKAPKLLIYSASYRYTGVPDRFSGSGSGTDFTLTISSLQPEDFAVYYCQQHYITPLTFGAGTKVEIKR
notes: also called BM; BM1
Take B1: the Kd in experiment [1] was found to be 385 pM.

B2: huA1E4F7D4-V16 (antibody, human IgG1, kappa, V domains shown)
VH: QVQLVQSGAEVKKPGASVKVSCKASGYSFTTHWIHWVRQAPGQGLEWIGTIFPSNAYAVYNQKFRDRATMTADTSISTAYIELSRLRSDDTAVYYCARASYFDYWGQGTTVTVSS
VL: EIVLTQSPATLSLSPGERATLSCRASQNIGTSIHWFQQKPGGAPRLLIKYASESISGIPSRFSGSGSGTDFTLTISSLEPEDFAVYYCQHSHSWPFTFGQGTKLEIKR
notes: Positions of the X residues are given in the claims; also called humanized antibody huA1E4F7D4-V16
Consider B2, for which the EC50 in experiment [2] came to 362 pM. Besides, in experiment [3], the Kd was 137 pM, the koff was found to be 0.000175 s⁻¹ and the kon was determined as 1.28e+06 M⁻¹ s⁻¹. Further, in experiment [4], the “fold higher affinity than BM2” value is above 100 fold.

B3: mouse antibody A1E11A12D1 (antibody, V domains shown)
VH: QVQLQQSGAELARPGASVKLSCMASGYTFTTYGISWVRQRTGQGLEWIGQIYPGSDYSYCDEDFKGKATLTADKSSSTAYMQLSSLTSEDSAVYFCARASYFDYWGQGTTLTVSS
VL: DILLTQSPAILSVSPGERVSFSCRASQTIGTAIHWYQQRANGSPRLLIKYASESISGIPSRFSGSGSGTDFALSINTVESEDFAYYYCQQSNNWPFTFGGGTKLEIR
notes: Mouse monoclonal IgG purified from hybridoma supernatant
For B3, the IC50 in [5] is 1000 pM; in experiment [6] it was 102 pM.

B4: mouse antibody A1H3C5H8E12 (antibody, V domains shown)
VH: QVQLQQSGAELVRPGTSVKMSCKAAGYTFTNYWIDWVKQRPGHGLEWIGNIFPGGFYTNYNEKFKGKATLTADTSSSTAYMQLSSLTSEDSAIYYCARGGVFDYWGQGTTLTVSS
VL: B3 VL with T28S, A32S, A40T, A72T, T77S, F83I, Y85D, N93S, F96Y, R107K
notes: as for B3
B4 showed an IC50 in experiment [7] of 9920 pM.

B5: mouse antibody A1E4F7D4 (antibody, V domains shown)
VH: QVQLQQSGAELAKPGTSVKMSCEASGYSFTTHWIHWMKQRPGQGLEWIGTIFPSNAYAVYNQKFRDRAIMTADRSSTTAYIQLTGLTSEDSAVYYCARASYFDYWGQGTTLTVSS
VL: DILLTQSPATLSVSPGERVTFSCRASQNIGTSIHWFQQRTTGSPRLLIKYASESISGIPSRFSGSGSGTDFTLHINSVESEDIAHYYCQHSHSWPFTFGSGTKLEIQ
notes: Mouse monoclonal IgG purified from hybridoma supernatant; also called Mouse A1E4F7D4
In experiment [8], B5 yielded an IC50 of 584 pM. In [9], this molecule yielded a Kd of 55.4 pM, a koff of 4.7e-05 s⁻¹ and a kon of 849000 M⁻¹ s⁻¹.
